T1: MRB1590(10-668) (Trypanosoma brucei, UniProt UPI00067E648B 10-668)
T1 sequence: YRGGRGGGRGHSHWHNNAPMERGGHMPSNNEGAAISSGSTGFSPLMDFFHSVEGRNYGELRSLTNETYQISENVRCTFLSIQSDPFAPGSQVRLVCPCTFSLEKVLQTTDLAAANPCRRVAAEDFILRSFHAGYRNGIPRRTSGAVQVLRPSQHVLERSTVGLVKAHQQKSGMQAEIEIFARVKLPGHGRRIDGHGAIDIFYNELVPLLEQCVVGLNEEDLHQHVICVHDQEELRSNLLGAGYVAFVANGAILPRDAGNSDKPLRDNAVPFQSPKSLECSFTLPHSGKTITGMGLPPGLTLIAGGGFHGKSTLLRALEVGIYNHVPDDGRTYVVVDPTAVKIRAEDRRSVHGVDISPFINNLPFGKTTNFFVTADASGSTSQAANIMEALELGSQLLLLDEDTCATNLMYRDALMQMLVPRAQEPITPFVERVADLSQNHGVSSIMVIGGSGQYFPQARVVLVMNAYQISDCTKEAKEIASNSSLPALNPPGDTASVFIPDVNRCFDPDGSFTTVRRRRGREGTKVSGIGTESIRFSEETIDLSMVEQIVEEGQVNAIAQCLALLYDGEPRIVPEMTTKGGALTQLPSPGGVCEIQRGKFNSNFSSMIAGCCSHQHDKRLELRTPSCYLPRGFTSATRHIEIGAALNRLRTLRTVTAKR


What was measured:
MRB1590(10-668) [1] = molecular target: T1, MRB1590(10-668); assay: fluorescence polarization; ADP, Mg2+; FP: 20 mM Tris-HCl pH 7.5, 150 mM NaCl, 5% glycerol, 1 mM MgCl2, 2 mM ADP or AMP-PNP, 1 nM 3'-fluoresceinated RNA (heated to 99 C, slow cooled), 25 C; conditions: protein: recombinant, chain copies: 2
MRB1590(10-668) [2] = molecular target: T1, MRB1590(10-668); assay: fluorescence polarization; AMP-PNP (table header says ATP), Mg2+; FP: 20 mM Tris-HCl pH 7.5, 150 mM NaCl, 5% glycerol, 1 mM MgCl2, 2 mM ADP or AMP-PNP, 1 nM 3'-fluoresceinated RNA (heated to 99 C, slow cooled), 25 C; conditions: protein: recombinant; chain copies: 2; label: 3' fluorescein
MRB1590 Y637A = MRB1590 Y637A (Trypanosoma brucei, UniProt UPI00067E648B 10-668, Y637A); assay: fluorescence polarization; ADP, Mg2+; little effect vs wt; FP: 20 mM Tris-HCl pH 7.5, 150 mM NaCl, 5% glycerol, 1 mM MgCl2, 2 mM ADP or AMP-PNP, 1 nM 3'-fluoresceinated RNA (heated to 99 C, slow cooled), 25 C; conditions: protein: recombinant; chain copies: 2; label: 3' fluorescein
MRB1590 R199A-R200A = MRB1590 R199A-R200A (Trypanosoma brucei, UniProt UPI00067E648B 10-668, R199A;R200A); assay: fluorescence polarization; ADP, Mg2+; FP: 20 mM Tris-HCl pH 7.5, 150 mM NaCl, 5% glycerol, 1 mM MgCl2, 2 mM ADP or AMP-PNP, 1 nM 3'-fluoresceinated RNA (heated to 99 C, slow cooled), 25 C; conditions: protein: recombinant; chain copies: 2; label: 3' fluorescein
MRB1590 F95A = MRB1590 F95A (Trypanosoma brucei, UniProt UPI00067E648B 10-668, F95A); assay: as above; conditions: protein: recombinant; chain copies: 2; label: 3' fluorescein
MRB1590(10-668) [3] = molecular target: T1, MRB1590(10-668); assay: fluorescence polarization; ADP, Mg2+; 1 RNA : 2 subunits; FP: 20 mM Tris-HCl pH 7.5, 150 mM NaCl, 5% glycerol, 1 mM MgCl2, 2 mM ADP or AMP-PNP, 1 nM 3'-fluoresceinated RNA (heated to 99 C, slow cooled), 25 C; conditions: protein: recombinant; chain copies: 2; label: 3' fluorescein
MRB1590 R191A = MRB1590 R191A (Trypanosoma brucei, UniProt UPI00067E648B 10-668, R191A); assay: fluorescence polarization; ADP, Mg2+; small effect vs wt; FP: 20 mM Tris-HCl pH 7.5, 150 mM NaCl, 5% glycerol, 1 mM MgCl2, 2 mM ADP or AMP-PNP, 1 nM 3'-fluoresceinated RNA (heated to 99 C, slow cooled), 25 C; conditions: protein: recombinant; chain copies: 2; label: 3' fluorescein

Row | Binder | Kd (MRB1590(10-668) [1]; label: 3' fluorescein) | other results
1 | UGAUACAAAAAAACAUGACUACAUGAUAAGUA (ssRNA) [NAD7 #1] | 50 ± 4 nM | 
2 | ACCGCCGUCGCCCGCCCGCCU (ssRNA) [Complement of GC-rich RNA] | 395 ± 95 nM | Kd (MRB1590(10-668) [2]): 377 ± 69 nM
3 | GAUUUUUUGAGUGGGACUGGAGAGAAAGAGCCGUUCGAGC (ssRNA) [RSP12 #2] | 27 ± 2.8 nM | 
4 | AGGCGGGCGGGCGACGGCGGU (ssRNA) [GC-rich sequence RNA (A6 pause site, 21 mer)] |  | binding result (MRB1590 Y637A): binds; binding signal (MRB1590 R199A-R200A): 590 fold reduction vs wt; binding signal (MRB1590 F95A): 10 fold reduction vs wt; Kd (MRB1590(10-668) [3]): 2.2 ± 0.2 nM; binding result (MRB1590 R191A): binds
5 | ACAAUAUCAAGUUUAGGUAUAAAGUAGA (ssRNA) [COX II #1] | 44 ± 2 nM | 
6 | GAACCUGGUAGGUGUAAUGAAAUAAUUUUGU (ssRNA) [COX II #2] | 43 ± 1.6 nM | 
7 | UUUUUUUUUUUUUUU (ssRNA) [U15 RNA] | 182 ± 30 nM | 
8 | AAAAAAAAAAAAAAA (ssRNA) [A15 RNA] | 437 ± 80 nM | 
9 | dsGC-rich RNA (dsRNA) RNA 1: AGGCGGGCGGGCGACGGCGGU RNA 2: ACCGCCGUCGCCCGCCCGCCU |  | Kd (MRB1590(10-668) [1]): 50 ± 15 nM
10 | AGAGGCGGGCGGGCGACGGCGGU (structured_RNA) [GC-rich hairpin RNA] |  | binding result (MRB1590(10-668) [1]; label: 3' fluorescein, hairpin): no binding
11 | GAGAAGGCGAGGGCGACGGGCAAAAGAUUUU (ssRNA) [NAD7 #2] | 7.8 ± 0.5 nM | 
12 | CUAAUACACUUUUGAUAACAAACUAAAGUAAAAAGGCGAG (ssRNA) [RSP12 #1] | 63 ± 2.5 nM | 

From PMC4538832, “Structures of the T. brucei kRNA editing factor MRB1590 reveal unique RNA-binding pore motif contained within an ABC-ATPase fold”
